This is an account of results in US20080311122A1, “Antagonists of Hmgb1 and/or Rage and Methods of Use Thereof” (Medimmune, LLC, priority 2005, published 2008).

Entries after “also recorded” stand apart in the source; their conditions may differ.

Test [1] relates to HMG1 stimulated cytokine gene expression in mouse macrophages. Description: Taqman analysis of mouse macrophages (mMØ) stimulated with HMG1. It counts as cell-based. The note with it: rHMG1. How it is done: Taqman Analysis of Mouse Macrophages (mMØ) Stimulated with HMG1: Mouse bone marrow was harvested by rinsing the femurs of normal C57BL/6 mice. The isolated bone marrow cells were then cultured in Dulbecco's modified Eagle's medium (DMEM) supplemented with 10% fetal bovine serum (FBS) and 50 ng/ml M-CSF for 24 h, nonadherent cells were collected and grown for 6 days in complete DMEM supplemented with 10% FBS and 50 ng/ml M-CSF in T-75 flasks (1×10^7 cells/15 ml/flask). On day 6, adherent cells were harvested and reseeded with 5 ng/ml MCSF in α-MEM containing 10% FBS in 96-well plates (1×10^5 cells/200 μl/well) overnight.
The culture medium was replaced with α-MEM and incubated for 2 hours before stimulation to starve cells. HMGB1 (recombinant CBP-HMGB1 fusion protein generated from E. coli at 10 μg/ml), mouse-RAGE-Fc or human-RAGE-Fc fusion protein were pre-mixed with various blocking reagents at 100 μg/ml in α-MEM for 20 min at RT, then 100 μl of the mixtures was added to the cells and incubated at 37° C. for 2 hours. The supernatant was then removed, and the RNA was extracted using Ambion's MagMAX™-96 Total RNA Isolation Kit. All of the recovered RNA were used in a reverse transcriptase (RT) reaction with SuperScript™ III and oligo(dT) primer (Invitrogen) for synthesis of cDNA. 1 μl or 2 μl of the resulting cDNA was used for real time quantitative PCR analysis (TaqMan) using ABI Prism 7700 or 7000.
On the technique in general: Quantitative PCR measures a nucleic acid by following its amplification.

In test [2] the test system is passive CIA mouse model of arthritis. The experiment in a line: Passive collagen-induced arthritis (CIA) mouse model. It counts as in vivo. The note with it: percent protection, isotype control subtracted. The procedure:
Induction of Passive Collagen Induced Arthritis (CIA): To establish an arthritis model six-eight week old male DBA/1J mice (Jackson Labs, Bar Harbor, Me.) were used. Generally 5-8 mice per group are used, On day 0, mice were immunized with 2 mg/mouse of anti-collage mAb cocktail (Chemicon # ECM1100, 10 mg/ml) intravenously, i.v. at tail. Mice were subsequently injected with 50 μg LPS/mouse, i.p. on day 3. Each experiment had several groups of animals as follows: groups A-E in experiment 1, groups G-J in experiment 2 and groups L-N). An additional group of mice (groups F, K and O) were untreated as normal controls.
Monitoring Disease: Beginning at day 0 all animals were observed daily to assess the status of the disease in their paws, which was done by assigning a qualitative clinical score to each of the paws. Every day, each animal has its 4 paws scored according to its state of clinical disease. The scoring is done by two observers, with at least one blinded. In addition, each mouse is weighed, to follow body weight changes, at the same time the paws are scored (see FIGS. 6A and 6D)
The grading scale for the 4 lateral digits of each paw are graded as involved or not involved, i.e., 1 or 0. For example, a maximally involved left rear paw would be scored: ankle=3, midfoot=3, digits=4 (clinical score=10 units) We would repeat this for each paw and sum the scores. […]

The subject of another test is HMG1 peptides. Description: HMG1 B Box and peptide mapping ELISA. Format: binding. The note with it: overlapping HMGB1 peptides. How it is done: HMG1 B Box and Peptide Mapping: Individual wells of a 96-well immunoplate (EIA/RIA plate, High binding, Costar) were coated with HMG1 B Box peptide amino acids 91-169 (FIG. 5A) or amino acids 150-183 (FIG. 5B) at 10 μg/ml in PBS at 4° C. overnight. The plate was then blocked with 4% milk powder dissolved in PBS at 37° C. for 1 hour. The blocking solution was removed and replaced with human anti-HMG1 antibodies at various concentrations (see FIGS. 5A-B). The plate was then washed (ELX-405 Plate washer, BIO-TEK) and secondary antibody (anti-human IgG-HRP, PIERCE) was added at a final concentration of 1:125,000 at 37° C. for 1 hour. HRP activity was detected with Sureblue HRP substrate (KPL). Plates were read at 450 nm using a Kinetic Microplate Reader (Molecular Devices). To obtain more detailed peptide mapping information, similar ELISA assays were performed using 16 biotinylated overlapping peptides spanning the HMGB1 protein from amino acid 1 to 215 as follows, maxisorp microtiter plate was coated with 2 μg/ml of NeutroAvidin (Pierce) overnight at 4° C. After washing and blocking with 1% BSA in PBS, the biotinylated peptides were individually added into the avidin coated wells and incubated for 30 min at room temperature. The serial diluted antibody G4, S16 and S6 at the initial concentration at 10 μg/ml were then transferred into the wells followed by adding mouse anti human IgG-HRP conjugate (Pierce). Detection was accomplished by adding 50 μl of tetramethylbenzidine (TMB) substrate (KPL) and the absorbance was read at […]. The peptides used were amino acids: 46-63; 61-78; 76-93; 91-108; 106-123; 136-153; 151-168; 166-183; 179-185; 181-198; and 196-215.

B1: G2: human anti-HMG1 IgG1 from Fab phage display library; VL/VH aa SEQ ID NO: 30/32 (antibody, listed as Homo sapiens, V domains shown)
VH: EVQLLESGGGLVQPGGSLRLSCAASGFTFSWYKMQWVRQAPGKGLEWVSGISPSGGSTAYADSVKGRFTISRDNSKNTLYLQMNSLRAEDTAVYYCAKMGLFNTGNSYVDYWGQGTLVTVSS
VL: AQSELTQPPSVSEAPGQRVTISCSGSTSNIGNNAVIWYQQLPGKAPKLLIYYDDLLPSGVSDRFSGSKSGTSGSLAISGLQSEDEADYYCASWDDNLNGPLFGGGTKLTVL
In the case of B1, in test [1], the “inhibition of HMG1-induced IL-1β gene expression” value was “significantly reduce HMG1-induced IL-1b gene expression; also recorded: robustly inhibited” and the “inhibition of HMG1-induced TNF-a gene expression” value is given as “significantly reduce HMG1-induced TNF-α gene expression; also recorded: robustly inhibited”. Further, in test [2], the “in vivo CIA passive” value stood at 0%.

B2: S16: human anti-HMG1 antibody, ATCC PTA-6259; VL/VH aa SEQ ID NO: 13/15 (antibody, listed as Homo sapiens, V domains shown)
VH: EVQLLESGGGLVQPGGSLRLSCAASGFTFSWYSMLWVRQAPGKGLEWVSYISPSGGFTNYADSVKGRFTISRDNSKNTLYLQMNSLRAEDTAVYYCARWDYNSGWYYDHWGQGTLVTVSS
VL: AQDIQMTQSPDTLSLSPGERATLSCRASQSVNSRNLAWYQQKPGQAPRLLIYGASTRATGIPDRFSGSVSGTEFTLTISSLQPDDFATYYCQQYNSYFTFGQGTKLEIK
For B2, the “in vivo CIA passive” value in test [2] stood at 0%. For the same molecule, the “detailed peptide mapping / domain recognized” value in the test on HMG1 peptides is “strongest binding to the B-box peptide 91-108 with lesser binding to peptides 166-183 and 179-186; also recorded: binds the B-box peptide 91-108 and to a lesser extent peptides 166-183 and 179-186”.

B3: E11: human anti-HMG1 antibody, recognizes HMG1 A-Box; VL/VH aa SEQ ID NO: 24/26 (antibody, listed as Homo sapiens, V domains shown)
VH: EVQLLESGGGLVQPGGSLRLSCAASGFTFSRYQMNWVRQAPGKGLEWVSSISPSGGHTHYADSVKGRFTISRDNSKNTLYLQMNSLRAEDTAVYYCAKDGRQGKISTVDHWGQGTLVTVSS
VL: AQDIQMTQSPGTLSLSPGERATLSCRASQSVRSNFLAWYQQKPGQAPRLLIYGASRRASGIPDRFSGSGFGADFTLSISRLEPEDFAVYYCQQYGSSPNTFGQGSRVEIK
As for B3, in test [1], the “inhibition of HMG1-induced IL-1β gene expression” value is given as “significantly reduce HMG1-induced IL-1b gene expression; also recorded: robustly inhibited”. For the same molecule, the “detailed peptide mapping / domain recognized” value in the test on HMG1 peptides was “recognizes the HMG1 A-Box”.
